# Laboratory results: paper PMC8540335
# B1: SL3-RNA (structured_RNA)
# RNA: GGACUAGCGGAGGCUAGUCC
# What was measured:
# [1] = target: NCp7 (1 Zn2+ per protein, as purified) (HIV-1, UniProt P04591 378-432); experiment: SPR; 1 Zn2+ per protein; 50 RU RNA immobilized; SPR (Biacore X100, SA chip): 10 mM HEPES pH 7.4, 150 mM NaCl, 0.005% Tween-20, 25 C; settings: protein: recombinant; tags: 6xHis (pET28); label: 3'-biotin; hairpin
# 2NCp7 (NCp7 with 2 Zn2+) = 2NCp7 (NCp7 with 2 Zn2+) (HIV-1, UniProt P04591 378-432); experiment: SPR; 2 Zn2+ per protein; 50 RU RNA immobilized; SPR (Biacore X100, SA chip): 10 mM HEPES pH 7.4, 150 mM NaCl, 0.005% Tween-20, 25 C; settings: protein: recombinant; tags: 6xHis (pET28); label: 3'-biotin; hairpin
binder,measurement,setting,value
B1,Kd,[1],21.4 nM
same,Kd,2NCp7 (NCp7 with 2 Zn2+),3.15 nM
